According to patent publication US12679878B2, “CRF2 receptor agonists and their use in therapy” (SANOFI, priority 2020, dated 2026):
Starred links: 1 amine or outer side, 2 acyl side, 3 side chain; linkers in the order of their positions; H or OH if unused. Non-standard residues stand in square brackets, D forms with d. Groups on a side chain read outwards from the residue. No end group written: not given here. *: point of attachment. C18 diacid = O=C(O)CCCCCCCCCCCCCCCCC(=O)*; γGlu = O=C(O)[C@H](CCC(=O)[*:2])N[*:1]; Palmitoyl = CCCCCCCCCCCCCCCC(=O)*; AEEA = NCCOCCOCC(=O)O; Aib = CC(C)(N)C(=O)O

B1: SEQ ID NO: 143 (peptide)
peptide: FTLSLDVPTKIK([AEEA-AEEA-γGlu-C18 diacid])QILLKQEKQKKQRQKAKTNKQILERV-NH2
modifications: N-terminus assumed
SMILES: CC[C@H](C)[C@H](NC(=O)[C@H](CCC(N)=O)NC(=O)[C@H](CCCCN)NC(=O)[C@H](CC(N)=O)NC(=O)[C@@H](NC(=O)[C@H](CCCCN)NC(=O)[C@H](C)NC(=O)[C@H](CCCCN)NC(=O)[C@H](CCC(N)=O)NC(=O)[C@H](CCCNC(=N)N)NC(=O)[C@H](CCC(N)=O)NC(=O)[C@H](CCCCN)NC(=O)[C@H](CCCCN)NC(=O)[C@H](CCC(N)=O)NC(=O)[C@H](CCCCN)NC(=O)[C@H](CCC(=O)O)NC(=O)[C@H](CCC(N)=O)NC(=O)[C@H](CCCCN)NC(=O)[C@H](CC(C)C)NC(=O)[C@H](CC(C)C)NC(=O)[C@@H](NC(=O)[C@H](CCC(N)=O)NC(=O)[C@H](CCCCNC(=O)COCCOCCNC(=O)COCCOCCNC(=O)CC[C@H](NC(=O)CCCCCCCCCCCCCCCCC(=O)O)C(=O)O)NC(=O)[C@@H](NC(=O)[C@H](CCCCN)NC(=O)[C@@H](NC(=O)[C@@H]1CCCN1C(=O)[C@@H](NC(=O)[C@H](CC(=O)O)NC(=O)[C@H](CC(C)C)NC(=O)[C@H](CO)NC(=O)[C@H](CC(C)C)NC(=O)[C@@H](NC(=O)[C@@H](N)Cc1ccccc1)[C@@H](C)O)C(C)C)[C@@H](C)O)[C@@H](C)CC)[C@@H](C)CC)[C@@H](C)O)C(=O)N[C@@H](CC(C)C)C(=O)N[C@@H](CCC(=O)O)C(=O)N[C@@H](CCCNC(=N)N)C(=O)N[C@H](C(N)=O)C(C)C
B2: SEQ ID NO: 15 (peptide)
peptide: FTLSLDVPTKIK([γGlu-Palmitoyl])QKLFKQAKQKKQRQKAKTNAQILARV-NH2
modifications: N-terminus assumed
SMILES: CCCCCCCCCCCCCCCC(=O)N[C@@H](CCC(=O)NCCCC[C@H](NC(=O)[C@@H](NC(=O)[C@H](CCCCN)NC(=O)[C@@H](NC(=O)[C@@H]1CCCN1C(=O)[C@@H](NC(=O)[C@H](CC(=O)O)NC(=O)[C@H](CC(C)C)NC(=O)[C@H](CO)NC(=O)[C@H](CC(C)C)NC(=O)[C@@H](NC(=O)[C@@H](N)Cc1ccccc1)[C@@H](C)O)C(C)C)[C@@H](C)O)[C@@H](C)CC)C(=O)N[C@@H](CCC(N)=O)C(=O)N[C@@H](CCCCN)C(=O)N[C@@H](CC(C)C)C(=O)N[C@@H](Cc1ccccc1)C(=O)N[C@@H](CCCCN)C(=O)N[C@@H](CCC(N)=O)C(=O)N[C@@H](C)C(=O)N[C@@H](CCCCN)C(=O)N[C@@H](CCC(N)=O)C(=O)N[C@@H](CCCCN)C(=O)N[C@@H](CCCCN)C(=O)N[C@@H](CCC(N)=O)C(=O)N[C@@H](CCCNC(=N)N)C(=O)N[C@@H](CCC(N)=O)C(=O)N[C@@H](CCCCN)C(=O)N[C@@H](C)C(=O)N[C@@H](CCCCN)C(=O)N[C@H](C(=O)N[C@@H](CC(N)=O)C(=O)N[C@@H](C)C(=O)N[C@@H](CCC(N)=O)C(=O)N[C@H](C(=O)N[C@@H](CC(C)C)C(=O)N[C@@H](C)C(=O)N[C@@H](CCCNC(=N)N)C(=O)N[C@H](C(N)=O)C(C)C)[C@@H](C)CC)[C@@H](C)O)C(=O)O
B3: SEQ ID NO: 145 (peptide)
peptide: FTLSLDVPTKIK([AEEA-AEEA-γGlu-C18 diacid])QILLKQERQKKQRQKAKKNKQILERV-NH2
modifications: N-terminus assumed
SMILES: CC[C@H](C)[C@H](NC(=O)[C@H](CCC(N)=O)NC(=O)[C@H](CCCCN)NC(=O)[C@H](CC(N)=O)NC(=O)[C@H](CCCCN)NC(=O)[C@H](CCCCN)NC(=O)[C@H](C)NC(=O)[C@H](CCCCN)NC(=O)[C@H](CCC(N)=O)NC(=O)[C@H](CCCNC(=N)N)NC(=O)[C@H](CCC(N)=O)NC(=O)[C@H](CCCCN)NC(=O)[C@H](CCCCN)NC(=O)[C@H](CCC(N)=O)NC(=O)[C@H](CCCNC(=N)N)NC(=O)[C@H](CCC(=O)O)NC(=O)[C@H](CCC(N)=O)NC(=O)[C@H](CCCCN)NC(=O)[C@H](CC(C)C)NC(=O)[C@H](CC(C)C)NC(=O)[C@@H](NC(=O)[C@H](CCC(N)=O)NC(=O)[C@H](CCCCNC(=O)COCCOCCNC(=O)COCCOCCNC(=O)CC[C@H](NC(=O)CCCCCCCCCCCCCCCCC(=O)O)C(=O)O)NC(=O)[C@@H](NC(=O)[C@H](CCCCN)NC(=O)[C@@H](NC(=O)[C@@H]1CCCN1C(=O)[C@@H](NC(=O)[C@H](CC(=O)O)NC(=O)[C@H](CC(C)C)NC(=O)[C@H](CO)NC(=O)[C@H](CC(C)C)NC(=O)[C@@H](NC(=O)[C@@H](N)Cc1ccccc1)[C@@H](C)O)C(C)C)[C@@H](C)O)[C@@H](C)CC)[C@@H](C)CC)C(=O)N[C@@H](CC(C)C)C(=O)N[C@@H](CCC(=O)O)C(=O)N[C@@H](CCCNC(=N)N)C(=O)N[C@H](C(N)=O)C(C)C
B4: SEQ ID NO: 142 (peptide)
peptide: IVLSLD[dV]PIKLK([AEEA-AEEA-γGlu-C18 diacid])QILLEQARQK[Aib]QREQAEKNKRILERV-NH2
modifications: N-terminus assumed
SMILES: CC[C@H](C)[C@H](N)C(=O)N[C@H](C(=O)N[C@@H](CC(C)C)C(=O)N[C@@H](CO)C(=O)N[C@@H](CC(C)C)C(=O)N[C@@H](CC(=O)O)C(=O)N[C@@H](C(=O)N1CCC[C@H]1C(=O)N[C@H](C(=O)N[C@@H](CCCCN)C(=O)N[C@@H](CC(C)C)C(=O)N[C@@H](CCCCNC(=O)COCCOCCNC(=O)COCCOCCNC(=O)CC[C@H](NC(=O)CCCCCCCCCCCCCCCCC(=O)O)C(=O)O)C(=O)N[C@@H](CCC(N)=O)C(=O)N[C@H](C(=O)N[C@@H](CC(C)C)C(=O)N[C@@H](CC(C)C)C(=O)N[C@@H](CCC(=O)O)C(=O)N[C@@H](CCC(N)=O)C(=O)N[C@@H](C)C(=O)N[C@@H](CCCNC(=N)N)C(=O)N[C@@H](CCC(N)=O)C(=O)N[C@@H](CCCCN)C(=O)NC(C)(C)C(=O)N[C@@H](CCC(N)=O)C(=O)N[C@@H](CCCNC(=N)N)C(=O)N[C@@H](CCC(=O)O)C(=O)N[C@@H](CCC(N)=O)C(=O)N[C@@H](C)C(=O)N[C@@H](CCC(=O)O)C(=O)N[C@@H](CCCCN)C(=O)N[C@@H](CC(N)=O)C(=O)N[C@@H](CCCCN)C(=O)N[C@@H](CCCNC(=N)N)C(=O)N[C@H](C(=O)N[C@@H](CC(C)C)C(=O)N[C@@H](CCC(=O)O)C(=O)N[C@@H](CCCNC(=N)N)C(=O)N[C@H](C(N)=O)C(C)C)[C@@H](C)CC)[C@@H](C)CC)[C@@H](C)CC)C(C)C)C(C)C
B5: SEQ ID NO: 146 (peptide)
peptide: FTLSLDVPIKLK([AEEA-AEEA-γGlu-C18 diacid])QILLKQERQKKQRQKAKKNKQILERV-NH2
modifications: N-terminus assumed
SMILES: CC[C@H](C)[C@H](NC(=O)[C@H](CCC(N)=O)NC(=O)[C@H](CCCCNC(=O)COCCOCCNC(=O)COCCOCCNC(=O)CC[C@H](NC(=O)CCCCCCCCCCCCCCCCC(=O)O)C(=O)O)NC(=O)[C@H](CC(C)C)NC(=O)[C@H](CCCCN)NC(=O)[C@@H](NC(=O)[C@@H]1CCCN1C(=O)[C@@H](NC(=O)[C@H](CC(=O)O)NC(=O)[C@H](CC(C)C)NC(=O)[C@H](CO)NC(=O)[C@H](CC(C)C)NC(=O)[C@@H](NC(=O)[C@@H](N)Cc1ccccc1)[C@@H](C)O)C(C)C)[C@@H](C)CC)C(=O)N[C@@H](CC(C)C)C(=O)N[C@@H](CC(C)C)C(=O)N[C@@H](CCCCN)C(=O)N[C@@H](CCC(N)=O)C(=O)N[C@@H](CCC(=O)O)C(=O)N[C@@H](CCCNC(=N)N)C(=O)N[C@@H](CCC(N)=O)C(=O)N[C@@H](CCCCN)C(=O)N[C@@H](CCCCN)C(=O)N[C@@H](CCC(N)=O)C(=O)N[C@@H](CCCNC(=N)N)C(=O)N[C@@H](CCC(N)=O)C(=O)N[C@@H](CCCCN)C(=O)N[C@@H](C)C(=O)N[C@@H](CCCCN)C(=O)N[C@@H](CCCCN)C(=O)N[C@@H](CC(N)=O)C(=O)N[C@@H](CCCCN)C(=O)N[C@@H](CCC(N)=O)C(=O)N[C@H](C(=O)N[C@@H](CC(C)C)C(=O)N[C@@H](CCC(=O)O)C(=O)N[C@@H](CCCNC(=N)N)C(=O)N[C@H](C(N)=O)C(C)C)[C@@H](C)CC
B6: SEQ ID NO: 144 (peptide)
peptide: FTLSLDVPTKIK([AEEA-AEEA-γGlu-C18 diacid])QILLKQERQKKQRQKAKTNKQILERV-NH2
modifications: N-terminus assumed
SMILES: CC[C@H](C)[C@H](NC(=O)[C@H](CCC(N)=O)NC(=O)[C@H](CCCCN)NC(=O)[C@H](CC(N)=O)NC(=O)[C@@H](NC(=O)[C@H](CCCCN)NC(=O)[C@H](C)NC(=O)[C@H](CCCCN)NC(=O)[C@H](CCC(N)=O)NC(=O)[C@H](CCCNC(=N)N)NC(=O)[C@H](CCC(N)=O)NC(=O)[C@H](CCCCN)NC(=O)[C@H](CCCCN)NC(=O)[C@H](CCC(N)=O)NC(=O)[C@H](CCCNC(=N)N)NC(=O)[C@H](CCC(=O)O)NC(=O)[C@H](CCC(N)=O)NC(=O)[C@H](CCCCN)NC(=O)[C@H](CC(C)C)NC(=O)[C@H](CC(C)C)NC(=O)[C@@H](NC(=O)[C@H](CCC(N)=O)NC(=O)[C@H](CCCCNC(=O)COCCOCCNC(=O)COCCOCCNC(=O)CC[C@H](NC(=O)CCCCCCCCCCCCCCCCC(=O)O)C(=O)O)NC(=O)[C@@H](NC(=O)[C@H](CCCCN)NC(=O)[C@@H](NC(=O)[C@@H]1CCCN1C(=O)[C@@H](NC(=O)[C@H](CC(=O)O)NC(=O)[C@H](CC(C)C)NC(=O)[C@H](CO)NC(=O)[C@H](CC(C)C)NC(=O)[C@@H](NC(=O)[C@@H](N)Cc1ccccc1)[C@@H](C)O)C(C)C)[C@@H](C)O)[C@@H](C)CC)[C@@H](C)CC)[C@@H](C)O)C(=O)N[C@@H](CC(C)C)C(=O)N[C@@H](CCC(=O)O)C(=O)N[C@@H](CCCNC(=N)N)C(=O)N[C@H](C(N)=O)C(C)C

Target: human corticotropin-releasing factor 2α (CRF2 α receptor) (human), Q13324
Experiment: cell-based or functional assay

Chain of human corticotropin-releasing factor 2α (CRF2 α receptor) (human), Q13324 (Q13324 20-411): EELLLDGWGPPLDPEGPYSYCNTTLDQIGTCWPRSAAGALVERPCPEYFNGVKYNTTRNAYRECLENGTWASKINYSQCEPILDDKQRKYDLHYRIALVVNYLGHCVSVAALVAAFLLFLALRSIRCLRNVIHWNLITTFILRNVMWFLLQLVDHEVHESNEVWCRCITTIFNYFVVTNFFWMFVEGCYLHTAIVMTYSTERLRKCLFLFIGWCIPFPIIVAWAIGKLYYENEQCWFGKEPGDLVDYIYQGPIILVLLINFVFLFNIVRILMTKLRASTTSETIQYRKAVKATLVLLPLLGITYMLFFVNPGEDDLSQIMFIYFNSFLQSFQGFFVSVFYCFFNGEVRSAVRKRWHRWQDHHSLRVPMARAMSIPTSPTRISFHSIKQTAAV

| Binder | EC50 [nM], 0% HSA [nM] | EC50 [nM], 0.1% HSA [nM] |
| --- | --- | --- |
| B1 | 1.44 | 93.8 |
| B2 | 0.88 | – |
| B3 | 1.46 | 96.9 |
| B4 | 0.05 | 1.42 |
| B5 | 0.11 | 4.36 |
| B6 | 1.36 | 76.3 |
